We go through one substance from patent US20090209427A1, “Microbial glyphosate resistant epsps” (priority 2004, published 2009).

This data set deals with C=C(OP(=O)(O)O)C(=O)O. Briefly: purified protein, by the assay type. To be noted: other: C. crescentus EPSPS, 50 mM K+-HEPES pH 7.0, 1 mM shikimate-3-phosphate, varying [14C]PEP.

Consider “Caulobacter crescentus EPSPS, native, SEQ ID NO: 9 (Caulobacter vibrioides CB15)”, for which the Km (as a rule, the concentration of substrate that gives half-maximal velocity) amounted to 2.0 µM.
